In patent publication US12606635B2, “Glypican-2-binding moieties, chimeric antigen receptors and uses thereof” (Nanjing Legend Biotech Co., Ltd., priority 2020, dated 2026):

Legend:
[1] = test system: GPC2 negative human epidermoid carcinoma cell line A-431; assay: In vitro cytotoxicity assay (LDH), A-431; format: cell-based; details: FIG. 7G
Method: (§1) The pre-activated T cells were transduced with lentivirus stock in the presence of […] polybrene and 300 IU/mL IL-2. T cells and lentivirus were centrifuged at 1000 g, 32° C. for 1 h and placed in humidified cell culture incubator for transgene expression under suitable conditions. On day 5 or day 7 or day 10 post-transduction, transduced T cells were harvested and co-incubated with tumor cells at an effector (CAR T) to target cell ratio of 10:1 or 5:1 or 2:1 or 1:1 or 0.2:1 for 20 hours. Target cells were human neuroblastoma cell line SH-SY5Y (ATCC, #CRL-2266), human neuroblastoma cell line IMR-32 cells (ATCC, #CCL-127), or human epidermoid carcinoma cell line A-431 (ATCC, #CRL-1555). To assay the cytotoxicity of CAR T cells on tumor cells, the Cytotoxicity Detection Kit (LDH) (Roche, #11644793001) assay reagents were prepared according to manufacturer's protocol. Reaction mix was added to the cell-free supernatant of each sample to detect the LDH released from cells. Optical densities at OD492 nm and OD650 nm were measured by PHERStar Microplate Reader. Baseline LDH released from the target cell in the absence of effector cells and effector cell in the absence of target cells were subtracted from the total LDH amount. The target maximum release was obtained by adding Triton-X100 at a final concentration of 1% to target cells in the absence of effector cells at the time when the cytotoxicity assays initiated. […] The specific cytotoxicity was calculated by the formula: % Target cell lysis=100*[(OD CAR T cell+Target cell)−(OD CAR T cell)−(OD Target cell)+(OD Buffer background)]/(OD Target Maximum release−OD Target Minimum release).
(§2) On day 5 or day 8 or day 10 post-transduction, transduced T cells were harvested and co-incubated with tumor cells at an effector (CAR T) to target cell ratio of 10:1 or 1:1 or 0.2:1 for 20 hours. To assay the cytotoxicity of CAR T cells on tumor cells, the Cytotoxicity Detection Kit (LDH) (Roche, #11644793001) was added to the culture supernatant and the specific cytotoxicity for each CAR T cell construct was measured as described in Example 6.

[2] = test system: SH-SY5Y; assay: IFNγ release in co-culture with SH-SY5Y; format: cell-based, human; details: Example 7, co-culture with SH-SY5Y, FIG. 8D-8F
From the text: (§3) In addition to the cytotoxicity data above, supernatants from the in vitro co-culture assays were also collected to assess CAR T cells-induced cytokine release, e.g., release of interferon gamma (i.e., IFNγ), as another indicator of cytotoxicity, was quantified using a HTRF human IFNγ AlphaLISA kit (Perkin Elmer, #62HIFNGPEH) per manufacturer's instruction. […] No significant cytokine release were detected against GPC2-negative cell line A-431.
(§4) Supernatants from the in vitro co-culture assays were collected to assess CAR T cells-induced cytokine release, e.g., interferon gamma (i.e., IFNγ) release as described in Example 6. […] IFNγ was not induced in GPC2-negative A-431 cells. […] Cytokine release data was consistent with the in vitro cytotoxicity data.

[3] = test system: IMR-32; assay: IFNγ release in co-culture with IMR-32; format: cell-based, human; details: Example 7, co-culture with IMR-32, FIG. 8D-8F
From the text: as §3, §4

[4] = test system: human neuroblastoma cell line SH-SY5Y; assay: In vitro cytotoxicity assay (LDH), SH-SY5Y; format: cell-based; details: SH-SY5Y, effector to target ratio 10:1, 20 hours, FIG. 8A
Method: The pre-activated T cells were transduced with lentivirus stock in the presence of […] polybrene and 300 IU/mL IL-2. T cells and lentivirus were centrifuged at 1000 g, 32° C. for 1 h and placed in humidified cell culture incubator for transgene expression under suitable conditions. On day 5 or day 7 or day 10 post-transduction, transduced T cells were harvested and co-incubated with tumor cells at an effector (CAR T) to target cell ratio of 10:1 or 5:1 or 2:1 or 1:1 or 0.2:1 for 20 hours. Target cells were human neuroblastoma cell line SH-SY5Y (ATCC, #CRL-2266), human neuroblastoma cell line IMR-32 cells (ATCC, #CCL-127), or human epidermoid carcinoma cell line A-431 (ATCC, #CRL-1555). To assay the cytotoxicity of CAR T cells on tumor cells, the Cytotoxicity Detection Kit (LDH) (Roche, #11644793001) assay reagents were prepared according to manufacturer's protocol. Reaction mix was added to the cell-free supernatant of each sample to detect the LDH released from cells. Optical densities at OD492 nm and OD650 nm were measured by PHERStar Microplate Reader. Baseline LDH released from the target cell in the absence of effector cells and effector cell in the absence of target cells were subtracted from the total LDH amount. The target maximum release was obtained by adding Triton-X100 at a final concentration of 1% to target cells in the absence of effector cells at the time when the cytotoxicity assays initiated. Supernatant from target cells in the absence of effector cells was used for target minimum release. The specific cytotoxicity was calculated by the formula: % Target cell lysis=100*[(OD CAR T cell+Target cell)−(OD CAR T cell)−(OD Target cell)+(OD Buffer background)]/(OD Target Maximum release−OD Target Minimum release).
as §2

[5] = test system: human neuroblastoma cell line IMR-32; assay: In vitro cytotoxicity assay (LDH), IMR-32; format: cell-based; details: co-cultured with IMR-32, FIG. 8C
Method: as §1, §2

[6] = test system: neuroblastoma SH-SY5Y xenograft; format: in vivo, NCG mice
Method: A single dose of untransduced T cells (10×10^6) or CAR T cells (5×10^6) was administered intravenously to tumor engrafted mice 9 days after tumor inoculation (FIG. 9A). […] At the end of obversion, 100% of monovalent CAR T cells (CAS70950VH6-BBz, CAS72669VH6-BBz) and 80% of multi-valent CAR T cells (CAS70950VH6-AS71529VH6-BBz) treated mice were alive (FIG. 9A). At day 42 post treatment, 2/5 mice (40%) treated with CAS72669VH6-BBz expressing CAR T cells were tumor-free and 3/5 mice (60%) treated with CAS70950VH6-AS71529VH6-BBz expressing CAR T cells were tumor-free without recurrence. […] The data highlighted the superiority of VHH-based CAR T cells in tumor regression and protection of mice from disease progression.
Moreover, the expansion and persistence of CAR T cells in vivo are also considered as critical predictors of durable clinical tumor regression in patients with cancer. […] Average 5.00±6.42% of CAR T cells were found in the peripheral blood of NCG mice treated with 5×10^6 CAS70950VH6-AS71529VH6-BBz CAR T cells, whereas less than 1% CAR T cells were detected in CAS70950VH6-BBz, CAS72669VH6-BBz and CAS71529VH6-BBz expressing CAR T groups. Expansion of CAR T cells in the CAS70950VH6-AS71529VH6-BBz group was inversely correlated with tumor size over time.

[7] = 5×10^6 CAR T cells i.v., FIG. 9A

Molecule | cytotoxicity against GPC2 negative A-431 [1] | IFNγ release [2] | IFNγ release [3] | specific percentage lysis [4] [%] | cytolytic activity compared with monovalent CAR T cells [5] | other results
CAS78117VH4-BBz: humanized VHH anti-GPC2 CAR (4-1BB, CD3ζ), SEQ ID NO: 227; tested as CAR T cells (protein, expressed in CAR T cells; CAS78117VH4-BBz) MALPVTALLLPLALLLHAARPEVQLVESGGGLVQPGGSLRLSCIVSRYTYATYSMAWFRQAPGKGLEGVSGLDSVGATGYAESVKGRFTISRDNSKNTLYLQMNSLRAEDTAVYYCVVDPASAKVTYGSWSTPSYAYWGQGTLVTVSSTTTPAPRPPTPAPTIASQPLSLRPEACRPAAGGAVHTRGLDFACDIYIWAPLAGTCGVLLLSLVITLYCKRGRKKLLYIFKQPFMRPVQTTQEEDGCSCRFPEEEEGGCELRVKFSRSADAPAYKQGQNQLYNELNLGRREEYDVLDKRRGRDPEMGGKPRRKNPQEGLYNELQKDKMAEAYSEIGMKGERRRGKGHDGLYQGLSTATKDTYDALHMQALPPR | no cytotoxicity | – | – | – | – | –
CAS72052VH5-AS71529VH5-BBz: bivalent tandem anti-GPC2 CAR (4-1BB, CD3ζ), SEQ ID NO: 240; tested as CAR T cells (protein, expressed in CAR T cells; CAS72052VH5-AS71529VH5-BBz) MALPVTALLLPLALLLHAARPQVQLVESGGGVVQPGGSLRLSCAVSGFRYASYCMGWFRQAPGKGLEGVAAIHSDGIIRYAESVKGRFTISKDNSKNTLYLQMNSLRAEDTAVYYCAAGAYCGADAILTLYDYAFWGQGTLVTVSSGGGGSGGGGSGGGGSEVQLVESGGGLVQPGGSLRLSCAVSEYRYSSRYCMGWFRQAPGKGLEGVSAIDSNGSADYVDSVKGRFTISKDNSKNTLYLQMNSLRAEDTAVYYCAADHLAYDCYSGATSVFRYWGQGTLVTVSSTTTPAPRPPTPAPTIASQPLSLRPEACRPAAGGAVHTRGLDFACDIYIWAPLAGTCGVLLLSLVITLYCKRGRKKLLYIFKQPFMRPVQTTQEEDGCSCRFPEEEEGGCELRVKFSRSADAPAYKQGQNQLYNELNLGRREEYDVLDKRRGRDPEMGGKPRRKNPQEGLYNELQKDKMAEAYSEIGMKGERRRGKGHDGLYQGLSTATKDTYDALHMQALPPR | – | high levels of IFNγ | high levels of IFNγ | 83.00±4.58 | equivalent or better cytolytic activity | –
CAS79236VH6-BBz: humanized VHH anti-GPC2 CAR (4-1BB, CD3ζ), SEQ ID NO: 233; tested as CAR T cells (protein, expressed in CAR T cells; CAS79236VH6-BBz) MALPVTALLLPLALLLHAARPEVQLVESGGGLVQPGGSLRLSCAVSGYTYSSYCMAWFRQAPGKGLEGVASIDAGGRTTYVDSVKGRFTISKDNAKNSLYLQMNSLRAEDTAMYYCAVDVRTRCGGTWDGEAVYFPYWGQGTLVTVSSTTTPAPRPPTPAPTIASQPLSLRPEACRPAAGGAVHTRGLDFACDIYIWAPLAGTCGVLLLSLVITLYCKRGRKKLLYIFKQPFMRPVQTTQEEDGCSCRFPEEEEGGCELRVKFSRSADAPAYKQGQNQLYNELNLGRREEYDVLDKRRGRDPEMGGKPRRKNPQEGLYNELQKDKMAEAYSEIGMKGERRRGKGHDGLYQGLSTATKDTYDALHMQALPPR | no cytotoxicity | – | – | – | – | –
CAS71529VH6-AS70950VH6-BBz: bivalent tandem anti-GPC2 CAR (4-1BB, CD3ζ), SEQ ID NO: 242; tested as CAR T cells (protein, expressed in CAR T cells; CAS71529VH6-AS70950VH6-BBz) MALPVTALLLPLALLLHAARPEVQLVESGGGLVQPGGSLRLSCAVSEYRYSSRYCMGWFRQAPGKGREGVAAIDSNGSADYVDSVKGRFTISKDNSKNTLYLQMNSLRAEDTAMYYCAADHLAYDCYSGATSVFRYWGQGTLVTVSSGGGGSGGGGSGGGGSEVQLVESGGGLVQPGGSLRLSCAISEFTYKNTCVGWFRQAPGKGREGVAAIDSDGNTNYVDSVKGRFTISQDNSKNTVYLQMNSLRAEDTAMYYCAAGAYCGRLLLWIGNYAYWGQGTLVTVSSTTTPAPRPPTPAPTIASQPLSLRPEACRPAAGGAVHTRGLDFACDIYIWAPLAGTCGVLLLSLVITLYCKRGRKKLLYIFKQPFMRPVQTTQEEDGCSCRFPEEEEGGCELRVKFSRSADAPAYKQGQNQLYNELNLGRREEYDVLDKRRGRDPEMGGKPRRKNPQEGLYNELQKDKMAEAYSEIGMKGERRRGKGHDGLYQGLSTATKDTYDALHMQALPPR | – | high levels of IFNγ | high levels of IFNγ | 70.33±4.93 | equivalent or better cytolytic activity | –
CAS72669VH6-BBz: humanized VHH anti-GPC2 CAR (4-1BB, CD3ζ), SEQ ID NO: 226; tested as CAR T cells (protein, expressed in CAR T cells; CAS72669VH6-BBz) MALPVTALLLPLALLLHAARPQVQLVESGGGVVQPGGSLRLSCAASRFTYSSYCMGWIRQAPGKGREGVAIFYTGGGRTYYADSVKGRFTISQDNSKNTLYLQMNSLRAEDTAVYYCVAGFYCSGGYWEGDFGYWGQGTLVTVSSTTTPAPRPPTPAPTIASQPLSLRPEACRPAAGGAVHTRGLDFACDIYIWAPLAGTCGVLLLSLVITLYCKRGRKKLLYIFKQPFMRPVQTTQEEDGCSCRFPEEEEGGCELRVKFSRSADAPAYKQGQNQLYNELNLGRREEYDVLDKRRGRDPEMGGKPRRKNPQEGLYNELQKDKMAEAYSEIGMKGERRRGKGHDGLYQGLSTATKDTYDALHMQALPPR | no cytotoxicity | – | – | – | – | treated mice alive at the end of observation [6, 7]: 100%; tumor regression compared with CAS71529VH6-BBz [6, 7]: more pronounced; tumor-free mice (number of mice) ([6]; day 42 post treatment): 2/5; tumor-free mice (percent) ([6]; day 42 post treatment): 40%; tumor burden compared with untransduced T cell-treated group ([6]; fourteen days after treatment, 5×10^6 CAR T cells i.v., FIG. 9A): reduced tumor burden; percentage of CAR T cells in peripheral blood ([6]; mouse, in vivo): less than 1%
